Data: patent US20190263889A1
Where “and” joins values, the source holds several entries; their conditions need not be identical. Equal entries are not always repeated.

Tests used:
[1] = target: CTLA-4Fc mutant protein M1 (human (murine residues substituted)); test: ELISA; binder 1 ug/ml on coated target
[2] = target: CTLA-4Fc mutant protein M10 (human (murine residues substituted)); test: ELISA; binder 1 ug/ml on coated target
[3] = target: CTLA-4Fc mutant protein M11 (human (murine residues substituted)); test: ELISA; binder 1 ug/ml on coated target
[4] = target: CTLA-4Fc mutant protein M2 (human (murine residues substituted)); test: ELISA; binder 1 ug/ml on coated target
[5] = target: CTLA-4Fc mutant protein M3 (human (murine residues substituted)); test: ELISA; binder 1 ug/ml on coated target
[6] = target: CTLA-4Fc mutant protein M4 (human (murine residues substituted)); test: ELISA; binder 1 ug/ml on coated target
[7] = target: CTLA-4Fc mutant protein M5 (human (murine residues substituted)); test: ELISA; binder 1 ug/ml on coated target
[8] = target: CTLA-4Fc mutant protein M6 (human (murine residues substituted)); test: ELISA; binder 1 ug/ml on coated target
[9] = target: CTLA-4Fc mutant protein M7 (human (murine residues substituted)); test: ELISA; binder 1 ug/ml on coated target
[10] = target: CTLA-4Fc mutant protein M8 (human (murine residues substituted)); test: ELISA; binder 1 ug/ml on coated target
[11] = target: CTLA-4Fc mutant protein M9 (human (murine residues substituted)); test: ELISA; binder 1 ug/ml on coated target
[12] = target: wild type human CTLA-4Fc fusion protein (abatacept) (human); test: ELISA; binder 1 ug/ml on coated target
[13] = target: CTLA-4Fc mutant protein M1 (human (murine residues substituted)); test: ELISA; binder 0 (blank) on coated target
[14] = target: CTLA-4Fc mutant protein M10 (human (murine residues substituted)); test: ELISA; binder 0 (blank) on coated target
[15] = target: CTLA-4Fc mutant protein M2 (human (murine residues substituted)); test: ELISA; binder 0 (blank) on coated target
[16] = target: CTLA-4Fc mutant protein M3 (human (murine residues substituted)); test: ELISA; binder 0 (blank) on coated target
[17] = target: CTLA-4Fc mutant protein M4 (human (murine residues substituted)); test: ELISA; binder 0 (blank) on coated target
[18] = target: CTLA-4Fc mutant protein M5 (human (murine residues substituted)); test: ELISA; binder 0 (blank) on coated target
[19] = target: CTLA-4Fc mutant protein M8 (human (murine residues substituted)); test: ELISA; binder 0 (blank) on coated target
[20] = target: CTLA-4Fc mutant protein M9 (human (murine residues substituted)); test: ELISA; binder 0 (blank) on coated target

CTLA-4Fc mutant protein M8 (human (murine residues substituted)), sequence (chain, as listed by the source mutant): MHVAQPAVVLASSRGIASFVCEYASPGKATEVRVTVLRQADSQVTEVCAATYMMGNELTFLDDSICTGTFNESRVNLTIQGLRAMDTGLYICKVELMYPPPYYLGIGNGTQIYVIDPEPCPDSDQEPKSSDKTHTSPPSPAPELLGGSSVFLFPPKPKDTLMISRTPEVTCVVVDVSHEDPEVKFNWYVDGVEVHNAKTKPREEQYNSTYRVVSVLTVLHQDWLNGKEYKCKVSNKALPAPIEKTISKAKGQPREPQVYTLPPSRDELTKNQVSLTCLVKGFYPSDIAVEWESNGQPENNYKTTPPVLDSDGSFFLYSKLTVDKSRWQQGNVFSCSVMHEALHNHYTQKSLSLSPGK
CTLA-4Fc mutant protein M4 (human (murine residues substituted)), sequence (chain, as listed by the source mutant): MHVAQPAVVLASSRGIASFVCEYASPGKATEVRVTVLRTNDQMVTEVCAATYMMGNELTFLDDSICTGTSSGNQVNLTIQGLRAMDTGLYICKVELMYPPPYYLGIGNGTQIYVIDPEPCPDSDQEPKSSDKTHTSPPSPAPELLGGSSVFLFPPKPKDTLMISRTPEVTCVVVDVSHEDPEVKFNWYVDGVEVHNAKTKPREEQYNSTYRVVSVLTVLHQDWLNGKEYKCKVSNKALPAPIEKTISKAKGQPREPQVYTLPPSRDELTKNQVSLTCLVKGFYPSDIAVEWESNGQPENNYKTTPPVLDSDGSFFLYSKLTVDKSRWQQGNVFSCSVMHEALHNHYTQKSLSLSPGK
CTLA-4Fc mutant protein M10 (human (murine residues substituted)), sequence (chain, as listed by the source mutant): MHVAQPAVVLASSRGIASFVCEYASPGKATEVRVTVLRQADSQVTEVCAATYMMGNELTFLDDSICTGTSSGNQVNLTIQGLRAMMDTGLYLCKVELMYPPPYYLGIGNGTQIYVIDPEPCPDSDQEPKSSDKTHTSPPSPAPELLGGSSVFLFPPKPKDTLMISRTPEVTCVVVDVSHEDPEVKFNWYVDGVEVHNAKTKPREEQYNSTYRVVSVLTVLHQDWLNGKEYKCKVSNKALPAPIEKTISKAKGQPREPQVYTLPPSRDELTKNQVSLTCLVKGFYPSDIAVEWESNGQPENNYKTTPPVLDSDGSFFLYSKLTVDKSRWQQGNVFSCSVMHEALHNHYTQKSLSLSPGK
CTLA-4Fc mutant protein M3 (human (murine residues substituted)), sequence (chain, as listed by the source mutant): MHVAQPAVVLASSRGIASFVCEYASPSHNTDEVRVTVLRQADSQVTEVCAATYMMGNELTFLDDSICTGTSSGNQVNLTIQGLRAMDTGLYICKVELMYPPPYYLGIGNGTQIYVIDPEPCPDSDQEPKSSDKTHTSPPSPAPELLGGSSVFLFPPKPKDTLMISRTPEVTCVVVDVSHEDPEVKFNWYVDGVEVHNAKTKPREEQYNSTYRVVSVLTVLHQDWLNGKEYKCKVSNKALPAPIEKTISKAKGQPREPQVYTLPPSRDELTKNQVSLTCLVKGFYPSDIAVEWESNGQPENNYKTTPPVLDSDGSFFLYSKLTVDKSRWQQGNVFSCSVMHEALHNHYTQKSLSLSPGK
CTLA-4Fc mutant protein M5 (human (murine residues substituted)), sequence (chain, as listed by the source mutant): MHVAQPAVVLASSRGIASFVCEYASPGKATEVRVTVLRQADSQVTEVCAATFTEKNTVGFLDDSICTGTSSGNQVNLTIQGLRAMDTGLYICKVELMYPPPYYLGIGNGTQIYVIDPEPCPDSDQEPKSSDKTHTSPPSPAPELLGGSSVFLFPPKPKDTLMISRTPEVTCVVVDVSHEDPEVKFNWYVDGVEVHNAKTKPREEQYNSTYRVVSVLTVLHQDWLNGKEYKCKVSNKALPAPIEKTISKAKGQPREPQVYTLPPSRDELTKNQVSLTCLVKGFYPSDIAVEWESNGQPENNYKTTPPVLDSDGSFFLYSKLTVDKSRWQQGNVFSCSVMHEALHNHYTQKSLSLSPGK
CTLA-4Fc mutant protein M2 (human (murine residues substituted)), sequence (chain, as listed by the source mutant): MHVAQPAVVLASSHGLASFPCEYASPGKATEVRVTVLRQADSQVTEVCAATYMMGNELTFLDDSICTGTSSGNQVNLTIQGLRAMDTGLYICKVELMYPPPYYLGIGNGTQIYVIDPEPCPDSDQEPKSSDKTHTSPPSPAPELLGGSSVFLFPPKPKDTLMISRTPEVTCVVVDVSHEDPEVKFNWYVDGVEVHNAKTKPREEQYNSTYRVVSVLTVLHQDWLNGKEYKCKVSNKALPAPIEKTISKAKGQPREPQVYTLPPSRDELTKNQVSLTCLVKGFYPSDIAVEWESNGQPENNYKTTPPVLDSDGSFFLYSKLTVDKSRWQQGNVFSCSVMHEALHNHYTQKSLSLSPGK
CTLA-4Fc mutant protein M1 (human (murine residues substituted)), sequence (chain, as listed by the source mutant): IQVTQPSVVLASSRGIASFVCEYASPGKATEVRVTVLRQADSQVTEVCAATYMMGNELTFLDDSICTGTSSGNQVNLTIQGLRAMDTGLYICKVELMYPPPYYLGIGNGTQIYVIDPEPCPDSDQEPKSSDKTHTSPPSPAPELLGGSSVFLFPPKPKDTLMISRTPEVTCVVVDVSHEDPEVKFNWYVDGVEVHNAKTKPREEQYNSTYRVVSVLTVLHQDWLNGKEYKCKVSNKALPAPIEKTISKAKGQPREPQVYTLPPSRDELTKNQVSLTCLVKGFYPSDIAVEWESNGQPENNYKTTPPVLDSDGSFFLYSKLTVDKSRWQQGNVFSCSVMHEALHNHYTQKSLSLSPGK
CTLA-4Fc mutant protein M9 (human (murine residues substituted)), sequence (chain, as listed by the source mutant): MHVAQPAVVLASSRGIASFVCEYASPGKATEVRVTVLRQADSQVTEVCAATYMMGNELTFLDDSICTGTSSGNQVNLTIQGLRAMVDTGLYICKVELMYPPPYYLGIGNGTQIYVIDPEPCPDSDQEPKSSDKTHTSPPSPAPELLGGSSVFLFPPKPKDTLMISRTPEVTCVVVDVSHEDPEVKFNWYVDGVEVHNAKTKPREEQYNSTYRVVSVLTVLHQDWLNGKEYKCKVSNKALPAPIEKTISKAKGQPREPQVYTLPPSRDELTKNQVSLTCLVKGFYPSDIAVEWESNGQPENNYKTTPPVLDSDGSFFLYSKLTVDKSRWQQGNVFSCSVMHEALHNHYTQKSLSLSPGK
CTLA-4Fc mutant protein M7 (human (murine residues substituted)), sequence (chain, as listed by the source mutant): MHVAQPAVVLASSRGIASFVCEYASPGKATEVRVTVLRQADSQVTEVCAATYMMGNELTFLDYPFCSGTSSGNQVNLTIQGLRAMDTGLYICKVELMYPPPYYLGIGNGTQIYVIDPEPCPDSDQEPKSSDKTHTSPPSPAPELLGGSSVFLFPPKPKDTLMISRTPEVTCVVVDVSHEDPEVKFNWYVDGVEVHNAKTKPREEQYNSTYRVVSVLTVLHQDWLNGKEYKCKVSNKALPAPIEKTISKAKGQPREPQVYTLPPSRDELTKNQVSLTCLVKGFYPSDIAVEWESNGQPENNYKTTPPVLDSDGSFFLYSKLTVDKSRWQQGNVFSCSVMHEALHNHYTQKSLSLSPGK
wild type human CTLA-4Fc fusion protein (abatacept) (human), sequence (chain, as listed by the source limits assumed): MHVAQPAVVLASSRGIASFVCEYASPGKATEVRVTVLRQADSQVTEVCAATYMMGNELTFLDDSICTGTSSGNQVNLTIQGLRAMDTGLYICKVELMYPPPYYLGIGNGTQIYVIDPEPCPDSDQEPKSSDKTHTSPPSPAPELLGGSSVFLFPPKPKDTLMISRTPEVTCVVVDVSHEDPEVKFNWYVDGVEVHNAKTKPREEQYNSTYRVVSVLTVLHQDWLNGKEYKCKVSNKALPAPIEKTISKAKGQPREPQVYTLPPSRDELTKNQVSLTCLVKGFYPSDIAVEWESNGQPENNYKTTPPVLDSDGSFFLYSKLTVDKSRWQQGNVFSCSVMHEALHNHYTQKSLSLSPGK
CTLA-4Fc mutant protein M6 (human (murine residues substituted)), sequence (chain, as listed by the source mutant): as the sequence (chain, as listed by the source limits assumed) above, with A50T counted along it
CTLA-4Fc mutant protein M11 (human (murine residues substituted)), sequence (chain, as listed by the source mutant): as the sequence (chain, as listed by the source limits assumed) above, with Y103F, L104V, I106M counted along it

OD450 [1]: 3.27 OD450 and 2.97 OD450 | OD450 [2]: 0.804 OD450 and 0.868 OD450 | OD450 [3]: 2.84 OD450 and 2.98 OD450 | OD450 [4]: 2.39 OD450 and 2.62 OD450 | OD450 [5]: 3.18 OD450 and 3.12 OD450 | OD450 [6]: 2.65 OD450 and 2.66 OD450 | OD450 [7]: 3.02 OD450 and 3.03 OD450 | OD450 [8]: 3.09 OD450 and 3.07 OD450 | OD450 [9]: 3.15 OD450 and 2.99 OD450 | OD450 [10]: 3.14 OD450 and 3.03 OD450 | OD450 [11]: 0.916 OD450 | OD450 [12]: 3.37 OD450 and 3.11 OD450 | OD450 [13]: 0.196 OD450 and 0.187 OD450 | OD450 [14]: 0.179 OD450 and 0.166 OD450 | OD450 [15]: 0.2 OD450 and 0.185 OD450 | OD450 [16]: 0.187 OD450 and 0.18 OD450 | OD450 [17]: 0.184 OD450 and 0.176 OD450 | OD450 [18]: 0.189 OD450 and 0.176 OD450 | OD450 [19]: 0.187 OD450 and 0.17 OD450 | OD450 [20]: 0.179 OD450 and 0.166 OD450
Substance: chimeric L3D10 anti-human CTLA-4 antibody
